Reference: US20220127585A1
Where no end group is shown, it is not given here. [ ]: non-standard residue; d: D form. code O = not defined here; Dab = NCC[C@H](N)C(=O)O

How the values were obtained:
[1] = target: T1, B-Raf kinase, P15056; assay: intrinsic fluorescence titration (ITF) of B-Raf in solution
T1 chain: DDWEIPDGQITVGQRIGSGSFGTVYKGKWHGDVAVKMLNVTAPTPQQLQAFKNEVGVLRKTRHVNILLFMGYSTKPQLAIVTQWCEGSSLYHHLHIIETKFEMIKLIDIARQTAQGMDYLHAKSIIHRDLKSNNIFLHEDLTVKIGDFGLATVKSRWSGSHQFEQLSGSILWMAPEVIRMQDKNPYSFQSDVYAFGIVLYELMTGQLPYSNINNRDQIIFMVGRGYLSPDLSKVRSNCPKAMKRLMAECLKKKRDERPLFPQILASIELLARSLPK

[2] = target: T1, B-Raf kinase, P15056; assay: Kd for the B-Raf dimer interface (FIG. 1), fluorescence titration
[3] = target: T1, B-Raf kinase, P15056; assay: intrinsic tryptophan fluorescence (ITF), column head 'Kd (ITF) (µM)'
[4] = target: T1, B-Raf kinase, P15056; assay: binding affinity with BRAF, Table 2 (method not given; the Methods describe fluorescence titration)
[5] = target: T1, B-Raf kinase, P15056; assay: binding affinity, Table 3 (method not given; the Methods describe fluorescence titration)
[6] = target: T1, B-Raf kinase, P15056; assay: ITC

B1: SEQ ID NO: 5 (503-521 R506E, …) (peptide)
peptide: GVLEKTRHVNILLFMGYST
modifications: not checked
Kd [1]: 1.09 µM

B2: SEQ ID NO: 6 (peptide)
peptide: GVLLKTRHVNILLFMGYST
modifications: not checked
Kd [2]: 0.54 µM

B3: SEQ ID NO: 45 (…) with N-Cap N2 (peptide)
peptide: TRHVNILLFMG
modifications: not checked
Kd [3]: 0.084 µM

B4: SEQ ID NO: 3 (scrambled, …) (peptide)
peptide: GRINKGRHTFLLVVMTYSL
modifications: not checked
Kd [1]: 2.96 µM

B5: SEQ ID NO: 33 (…) (peptide)
peptide: VCRKTRHVNILLCM
modifications: not checked
Kd [4]: 0.36 µM

B6: SEQ ID NO: 22 (504-518 R506A, …) (peptide)
peptide: VLAKTRHVNILLFMG
modifications: not checked
Kd [1]: 0.36 µM

B7: SEQ ID NO: 53 (…) (peptide)
peptide: VLRKKRHVNELLFMG
modifications: not checked
Kd [5]: 1.89 µM
Kd [4]: 1.89 µM

B8: SEQ ID NO: 58 (VLRKO…) (peptide)
peptide: VLRK[code O]RHVAELIFMG
modifications: reading uncertain
Kd [5]: 0.17 µM

B9: SEQ ID NO: 61 (…) (peptide)
peptide: KRHPAELLFMG
modifications: not checked
Kd [5]: 0.16 µM

B10: SEQ ID NO: 24 (504-518 R509A, …) (peptide)
peptide: VLRKTAHVNILLFMG
modifications: not checked
Kd [1]: 2.4 µM

B11: SEQ ID NO: 37 (cyclo 508-513 T508K, I513E, …) (peptide)
peptide: LRKKRHVNELLFMG
modifications: not checked
Kd [1]: 1.89 µM

B12: SEQ ID NO: 45 (…) with N-Cap N1 (peptide)
peptide: TRHVNILLFMG
modifications: not checked
Kd [3]: 0.05 µM

B13: SEQ ID NO: 32 (505-518 R506L, …) (peptide)
peptide: LLKTRHVNILLFMG
modifications: not checked
Kd [1]: 0.55 µM

B14: SEQ ID NO: 10 (503-521 V511A, …) (peptide)
peptide: GVLRKTRHANILLFMGYST
modifications: not checked
Kd [1]: 4.75 µM

B15: SEQ ID NO: 1 (B-Raf residues 503-521, …) (peptide)
peptide: GVLRKTRHVNILLFMGYST
modifications: not checked
Kd [2]: 3.84 µM

B16: SEQ ID NO: 28 (504-518 L514A, …) (peptide)
peptide: VLRKTRHVNIALFMG
modifications: not checked
Kd [1]: 1.02 µM

B17: SEQ ID NO: 4 (503-521 L505A, …) (peptide)
peptide: GVARKTRHVNILLFMGYST
modifications: not checked
Kd [1]: 3.89 µM

B18: SEQ ID NO: 54 (VDab…) (peptide)
peptide: V[Dab]RKKRHVNELLDMG
Kd [4]: 0.37 µM

B19: SEQ ID NO: 60 (VLRKKMe…) (peptide)
peptide: VLRKKRHVAELLFMG
modifications: not checked
Kd [5]: 0.039 µM

B20: SEQ ID NO: 7 (503-521 T508D, …) (peptide)
peptide: GVLRKDRHVNILLFMGYST
modifications: not checked
Kd [1]: 2.2 µM

B21: SEQ ID NO: 27 (504-518 I513A, …) (peptide)
peptide: VLRKTRHVNALLFMG
modifications: not checked
Kd [1]: 2.69 µM

B22: SEQ ID NO: 11 (503-521 L514A, …) (peptide)
peptide: GVLRKTRHVNIALFMGYST
modifications: not checked
Kd [1]: 9.8 µM

B23: SEQ ID NO: 21 (504-518 L505A, …) (peptide)
peptide: VARKTRHVNILLFMG
modifications: not checked
Kd [1]: 0.45 µM

B24: SEQ ID NO: 47 (…) (peptide)
peptide: KRHVAELLFMG
modifications: not checked
Kd [5]: 0.59 µM

B25: SEQ ID NO: 15 (503-518, …) (peptide)
peptide: GVLRKTRHVNILLFMG
modifications: not checked
Kd [1]: 1.88 µM

B26: SEQ ID NO: 12 (503-521 L515I, …) (peptide)
peptide: GVLRKTRHVNILIFMGYST
modifications: not checked
Kd [1]: 4.1 µM

B27: SEQ ID NO: 8 (peptide)
peptide: GVLRKARHVNILLFMGYST
modifications: not checked
ΔH [6]: -8.32 kcal/mol

B28: SEQ ID NO: 16 (…) (peptide)
peptide: VLRKTRHVNILLFM
modifications: not checked
Kd [4]: 5.75 µM

B29: SEQ ID NO: 25 (504-518 H510A, …) (peptide)
peptide: VLRKTRAVNILLFMG
modifications: not checked
Kd [1]: 2.7 µM

B30: SEQ ID NO: 29 (504-518 F516A, …) (peptide)
peptide: VLRKTRHVNILLAMG
modifications: not checked
Kd [1]: 0.57 µM

B31: SEQ ID NO: 30 (504-518 M517A, …) (peptide)
peptide: VLRKTRHVNILLFAG
modifications: not checked
Kd [1]: 0.54 µM

B32: SEQ ID NO: 31 (…) (peptide)
peptide: LRKTRHVNILLFMG
modifications: not checked
Kd [1]: 0.19 µM
Kd [5]: 1.88 µM
